{
  "source": "the supplement of paper PMC12042874",
  "note": "± gives the uncertainty stated by the source.",
  "data": [
    {"assay": "amyloid nucleation score (Sup35N fusion, yeast selection) (log enrichment); library NNK2; higher = more nucleation; inactive = no reads after selection", "how_it_was_run": "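The nucleation score, computed with DiMSum, is the log enrichment of output over input reads, centred on the mode score of non-aggregating sequences. Sequences with under 100 input reads were dropped. Reads were generated by Illumina sequencing of plasmid inserts from psi-negative yeast with Sup35N fused to peptides of 20 random codons, induced with 100 μM copper sulfate for 24 hours and grown 7 days at 30°C on medium lacking adenine and uracil.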", "values": [
      {"substance": "YGLLHQFRSCKRI", "amyloid nucleation score": "-0.682 ± 0.29"},
      {"substance": "YGMSRNIGAVVWHFCG", "amyloid nucleation score": "-0.368 ± 1"},
      {"substance": "YGMVIRCPARVCVQTLFNNA", "amyloid nucleation score": "4.86 ± 0.094"},
      {"substance": "YGNPRIFIESMKYEVGIRVS", "amyloid nucleation score": "inactive"},
      {"substance": "YGNSYRG", "amyloid nucleation score": "-0.044 ± 0.55"},
      {"substance": "YGRIR", "amyloid nucleation score": "-0.131 ± 0.63"},
      {"substance": "YGRPIIVMYKLLRQNSSSRL", "amyloid nucleation score": "-0.496 ± 0.48"},
      {"substance": "YGSCGQRKN", "amyloid nucleation score": "0.519 ± 0.3"},
      {"substance": "YHSWVGFIRYPIISWGRMMG", "amyloid nucleation score": "inactive"},
      {"substance": "YHTSQLYWLLRCQSSFNSWG", "amyloid nucleation score": "2.48 ± 0.079"},
      {"substance": "YIAYGDFSSFFTLNIS", "amyloid nucleation score": "7.476 ± 0.047"},
      {"substance": "YICRNLISESLCLYYTGARG", "amyloid nucleation score": "5.03 ± 0.065"},
      {"substance": "YIDLLGRVCHYSLGWLCYCM", "amyloid nucleation score": "-1.05 ± 1.1"},
      {"substance": "YILCYTVNCNAELSHLVCDI", "amyloid nucleation score": "7.154 ± 0.058"},
      {"substance": "YIPKLLRCGRGCHYILSYAD", "amyloid nucleation score": "0.065 ± 0.62"},
      {"substance": "YISFSDEVFV", "amyloid nucleation score": "inactive"},
      {"substance": "YISMSMLGCLRTLREVHRDR", "amyloid nucleation score": "3.21 ± 0.11"},
      {"substance": "YIVCLMESIRI", "amyloid nucleation score": "3.2 ± 0.17"},
      {"substance": "YIWNCDSDSIVPLLL", "amyloid nucleation score": "inactive"},
      {"substance": "YKCDVICCFGIWVLMFEN", "amyloid nucleation score": "5.25 ± 0.074"},
      {"substance": "YKLTGLDYKWASLNATWETQ", "amyloid nucleation score": "inactive"},
      {"substance": "YKRLEMLRMSCTIWTITPPR", "amyloid nucleation score": "0.234 ± 0.32"},
      {"substance": "YKVYPWLFIYLLLLDRAD", "amyloid nucleation score": "-1.45 ± 0.73"},
      {"substance": "YKYMGLFSSIFNVLGSLISY", "amyloid nucleation score": "-1.95 ± 1.1"},
      {"substance": "YLDGYSSFTSFEKAMARRCG", "amyloid nucleation score": "0.305 ± 0.74"},
      {"substance": "YLEFSPTSITWGAPLERYST", "amyloid nucleation score": "inactive"},
      {"substance": "YLEMMYVAFNFFNGIYCLFY", "amyloid nucleation score": "inactive"},
      {"substance": "YLFFYNMSRDRSDTWCEHAV", "amyloid nucleation score": "3.5 ± 0.094"},
      {"substance": "YLKDPTFMGVNAFCVVLHFV", "amyloid nucleation score": "6.01 ± 0.077"},
      {"substance": "YLLFNLHAVYLLVSGEPSPC", "amyloid nucleation score": "0.405 ± 0.39"},
      {"substance": "YLLNLEF", "amyloid nucleation score": "inactive"},
      {"substance": "YLLRNWLPGKVGCHQFLILW", "amyloid nucleation score": "0.757 ± 0.39"},
      {"substance": "YLNYNIMS", "amyloid nucleation score": "inactive"},
      {"substance": "YLPTGELIHHYKTSIVLDSA", "amyloid nucleation score": "-0.458 ± 0.41"},
      {"substance": "YLRLHYAFSGVNNKGIESGC", "amyloid nucleation score": "inactive"},
      {"substance": "YLSNKT", "amyloid nucleation score": "-0.515 ± 0.29"},
      {"substance": "YLSVPSGQSGGDGFNDESSV", "amyloid nucleation score": "inactive"},
      {"substance": "YLTRAIIVFIS", "amyloid nucleation score": "3.66 ± 0.062"},
      {"substance": "YLVDTSCRVGWTDVYFPVRV", "amyloid nucleation score": "inactive"},
      {"substance": "YLYGCGNMVVIWRSGRQMDI", "amyloid nucleation score": "-1.42 ± 0.49"},
      {"substance": "YMFNSWYGLSSLWGKSKKMS", "amyloid nucleation score": "-0.538 ± 0.26"},
      {"substance": "YMKKSMF", "amyloid nucleation score": "-0.095 ± 1.1"},
      {"substance": "YMLMREASGLLRPGAEMWFN", "amyloid nucleation score": "-0.177 ± 0.45"},
      {"substance": "YMMSRASSVIIEREYK", "amyloid nucleation score": "0.479 ± 0.74"},
      {"substance": "YMPPSCMSP", "amyloid nucleation score": "inactive"},
      {"substance": "YMSGILASIRKSILQGRSRE", "amyloid nucleation score": "-1.41 ± 0.49"},
      {"substance": "YMTSD", "amyloid nucleation score": "-0.464 ± 0.41"},
      {"substance": "YMVCLRSGSIPVIDLPWYSL", "amyloid nucleation score": "-0.12 ± 1"},
      {"substance": "YMVDIGSHYKVCVMFHWTFS", "amyloid nucleation score": "-0.88 ± 0.45"},
      {"substance": "YMVGVSITMCCRATLNFSSM", "amyloid nucleation score": "5.21 ± 0.06"},
      {"substance": "YMYPWGP", "amyloid nucleation score": "0.693 ± 0.28"},
      {"substance": "YNASVDVLHY", "amyloid nucleation score": "-0.146 ± 1"},
      {"substance": "YNGTTLMMGDIGSCSFI", "amyloid nucleation score": "-0.787 ± 0.38"},
      {"substance": "YNKLRPGATCHLETWS", "amyloid nucleation score": "-0.614 ± 0.79"},
      {"substance": "YNLCWCRVIDFCLCWYCILW", "amyloid nucleation score": "4.94 ± 0.081"},
      {"substance": "YNLESLNFMLCSLRTQGKFR", "amyloid nucleation score": "0.149 ± 0.25"},
      {"substance": "YNLSSLLRCDLAAKTRTIFM", "amyloid nucleation score": "-0.575 ± 0.35"},
      {"substance": "YNMIYYQLNTMLVHDMIKYG", "amyloid nucleation score": "3.56 ± 0.073"},
      {"substance": "YNRRLYRIACVGIVNVNGVG", "amyloid nucleation score": "5.902 ± 0.042"},
      {"substance": "YNSMSVSILNVYYDQPWSLS", "amyloid nucleation score": "8.768 ± 0.049"},
      {"substance": "YNSRNIEDFFVIDLVNWLRL", "amyloid nucleation score": "-1.24 ± 1.1"},
      {"substance": "YNTVVVPDVMTGRF", "amyloid nucleation score": "-0.599 ± 1"},
      {"substance": "YNVMDVMYYAQKWLLWWSKV", "amyloid nucleation score": "-0.353 ± 0.41"},
      {"substance": "YPLGS", "amyloid nucleation score": "inactive"},
      {"substance": "YPNTLFHWEAS", "amyloid nucleation score": "0.359 ± 0.29"},
      {"substance": "YPSLNDACQP", "amyloid nucleation score": "-0.394 ± 1.1"},
      {"substance": "YPWLRIWCDRNDIEVGLVFA", "amyloid nucleation score": "-0.055 ± 0.79"},
      {"substance": "YQLRCKCSTF", "amyloid nucleation score": "-0.757 ± 0.41"},
      {"substance": "YQPRAYGKSPSIQFGQIVKQ", "amyloid nucleation score": "0.106 ± 0.31"},
      {"substance": "YQSDLTYLE", "amyloid nucleation score": "-0.518 ± 0.35"},
      {"substance": "YQSFFVINLYNGLHTRGMRV", "amyloid nucleation score": "7.701 ± 0.055"},
      {"substance": "YQSPCVTVVSGKRALPRGGR", "amyloid nucleation score": "-0.001 ± 0.28"},
      {"substance": "YQTWDSYVRSTCVYITCPWY", "amyloid nucleation score": "7.133 ± 0.059"},
      {"substance": "YREHQKVRFSSLISSIGVLM", "amyloid nucleation score": "-0.004 ± 0.49"},
      {"substance": "YRGYAPIYLHLRSSYVPVAL", "amyloid nucleation score": "-0.319 ± 0.35"},
      {"substance": "YRIQKHWCQLS", "amyloid nucleation score": "-0.087 ± 0.76"},
      {"substance": "YRLFSRWAVVRFMGVGSLSF", "amyloid nucleation score": "-0.691 ± 0.56"},
      {"substance": "YRQRFVRKARSFYLWVMALP", "amyloid nucleation score": "-0.409 ± 0.45"},
      {"substance": "YRRLRTNLLWRQSRSY", "amyloid nucleation score": "0.817 ± 0.54"},
      {"substance": "YRRRSKHAVNKGRMCA", "amyloid nucleation score": "1.3 ± 0.28"},
      {"substance": "YRSSHYYQQSIIVFVIMHRC", "amyloid nucleation score": "2.11 ± 0.3"},
      {"substance": "YRVFMVPTWGGS", "amyloid nucleation score": "0.381 ± 0.56"},
      {"substance": "YSASKFTWPCIKTSKCGALC", "amyloid nucleation score": "-1.09 ± 0.63"},
      {"substance": "YSELMFTEVIYTVYYLTFLR", "amyloid nucleation score": "-0.797 ± 0.76"},
      {"substance": "YSFELGDFRMEKLIRDMVKC", "amyloid nucleation score": "-0.932 ± 0.42"},
      {"substance": "YSLRLDVYYRGWADYPGLWT", "amyloid nucleation score": "1.73 ± 0.18"}
    ]}
  ]
}
